Common to all, as to experiment: cell-based or functional assay
Assay [1] concerns the target AMPK (r) (rat (r), UniProt Q09137 1-552, limits assumed).
In assay [2] the target is L1MK1 (h) (human (h), UniProt P53667 285-638, limits assumed).
Assay [3] concerns the target ROCK-1 (h) (human (h), UniProt Q13464 17-535, limits assumed).
The target of assay [4] is PKB β (h) (human (h), UniProt P31751 1-481, limits assumed).
Assay [5] deals with FGFR1 (h) (human (h), UniProt P11362 456-765, limits assumed).
For assay [6], the target named is T1, Ret (h) (human (h), UniProt P07949 658-1114, limits assumed).
T1 sequence (looked up): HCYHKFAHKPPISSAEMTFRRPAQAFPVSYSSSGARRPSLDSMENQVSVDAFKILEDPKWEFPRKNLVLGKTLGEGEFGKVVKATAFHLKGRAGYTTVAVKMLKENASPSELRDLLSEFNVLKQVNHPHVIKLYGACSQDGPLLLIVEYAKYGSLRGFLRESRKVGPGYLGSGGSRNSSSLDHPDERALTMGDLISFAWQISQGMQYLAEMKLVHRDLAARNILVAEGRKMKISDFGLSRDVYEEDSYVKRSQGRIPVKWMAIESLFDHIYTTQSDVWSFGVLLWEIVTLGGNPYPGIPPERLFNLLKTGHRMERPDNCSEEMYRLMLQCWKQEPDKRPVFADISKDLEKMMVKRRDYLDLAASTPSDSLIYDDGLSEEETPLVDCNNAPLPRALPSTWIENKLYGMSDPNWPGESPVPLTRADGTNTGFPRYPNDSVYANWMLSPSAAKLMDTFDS

The target in assay [7] is Lck (h) (human (h), UniProt P06239 1-509).
For assay [8], the target named is BTK (h) (human (h), UniProt Q06187 1-659).
The target of assay [9] is T2, Flt3 (h) (human (h), UniProt P36888 564-993, limits assumed).
T2 sequence (looked up): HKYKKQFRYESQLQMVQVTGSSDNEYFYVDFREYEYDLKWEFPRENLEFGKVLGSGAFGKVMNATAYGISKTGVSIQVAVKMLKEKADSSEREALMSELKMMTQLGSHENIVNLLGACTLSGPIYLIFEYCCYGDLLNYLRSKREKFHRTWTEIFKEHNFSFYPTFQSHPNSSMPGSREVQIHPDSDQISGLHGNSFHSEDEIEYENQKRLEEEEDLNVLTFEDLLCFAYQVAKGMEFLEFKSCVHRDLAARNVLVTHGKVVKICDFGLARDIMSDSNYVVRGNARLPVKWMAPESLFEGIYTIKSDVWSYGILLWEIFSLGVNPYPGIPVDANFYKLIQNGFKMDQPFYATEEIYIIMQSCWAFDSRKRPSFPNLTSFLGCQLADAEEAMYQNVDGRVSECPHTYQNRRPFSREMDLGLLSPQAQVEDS

Assay [10] addresses CDKI/cyclinB (h) (human (h), UniProt P06493 1-297).
Assay [11] concerns the target T3, DYRK2 (h) (human (h), UniProt Q92630 1-601, limits assumed).
T3 sequence (looked up): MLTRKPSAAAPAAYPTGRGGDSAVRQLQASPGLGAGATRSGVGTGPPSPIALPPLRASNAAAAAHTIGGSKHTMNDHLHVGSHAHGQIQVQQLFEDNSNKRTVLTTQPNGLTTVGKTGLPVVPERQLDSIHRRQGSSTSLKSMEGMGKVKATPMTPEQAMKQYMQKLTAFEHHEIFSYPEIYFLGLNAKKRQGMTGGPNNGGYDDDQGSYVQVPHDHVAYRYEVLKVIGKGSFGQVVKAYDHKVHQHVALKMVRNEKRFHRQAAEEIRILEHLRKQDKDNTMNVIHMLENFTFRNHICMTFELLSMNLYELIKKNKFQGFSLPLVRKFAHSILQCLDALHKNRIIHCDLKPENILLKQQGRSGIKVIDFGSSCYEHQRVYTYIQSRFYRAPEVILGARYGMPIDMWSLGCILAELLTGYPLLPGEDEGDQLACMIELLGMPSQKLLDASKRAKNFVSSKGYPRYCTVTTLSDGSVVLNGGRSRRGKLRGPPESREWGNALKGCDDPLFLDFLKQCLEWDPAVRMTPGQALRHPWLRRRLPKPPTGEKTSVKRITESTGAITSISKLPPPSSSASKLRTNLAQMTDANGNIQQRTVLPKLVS

For assay [12], the target named is PKA (h) (human (h), UniProt P17612 1-351).
Assay [13] addresses Pim-1 (h) (human (h), UniProt P11309 1-313).
Assay [14] concerns the target T4, EphA2 (h) (human (h), UniProt P29317 591-976, limits assumed).
T4 sequence (looked up): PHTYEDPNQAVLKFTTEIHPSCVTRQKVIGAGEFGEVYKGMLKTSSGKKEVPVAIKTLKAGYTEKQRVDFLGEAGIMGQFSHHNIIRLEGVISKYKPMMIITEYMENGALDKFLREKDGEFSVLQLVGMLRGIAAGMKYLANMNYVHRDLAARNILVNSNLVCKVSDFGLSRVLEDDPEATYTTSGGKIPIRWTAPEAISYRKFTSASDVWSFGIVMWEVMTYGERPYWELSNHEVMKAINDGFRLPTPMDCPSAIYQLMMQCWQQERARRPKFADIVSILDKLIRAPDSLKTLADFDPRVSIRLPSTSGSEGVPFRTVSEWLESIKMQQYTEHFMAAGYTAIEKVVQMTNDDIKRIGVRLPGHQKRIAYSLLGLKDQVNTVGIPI

We go through one molecule from US20090149389A1 (PURDUE RESEARCH FOUNDATION, published 2009).

Chain of BTK (h) (Q06187 whole entry): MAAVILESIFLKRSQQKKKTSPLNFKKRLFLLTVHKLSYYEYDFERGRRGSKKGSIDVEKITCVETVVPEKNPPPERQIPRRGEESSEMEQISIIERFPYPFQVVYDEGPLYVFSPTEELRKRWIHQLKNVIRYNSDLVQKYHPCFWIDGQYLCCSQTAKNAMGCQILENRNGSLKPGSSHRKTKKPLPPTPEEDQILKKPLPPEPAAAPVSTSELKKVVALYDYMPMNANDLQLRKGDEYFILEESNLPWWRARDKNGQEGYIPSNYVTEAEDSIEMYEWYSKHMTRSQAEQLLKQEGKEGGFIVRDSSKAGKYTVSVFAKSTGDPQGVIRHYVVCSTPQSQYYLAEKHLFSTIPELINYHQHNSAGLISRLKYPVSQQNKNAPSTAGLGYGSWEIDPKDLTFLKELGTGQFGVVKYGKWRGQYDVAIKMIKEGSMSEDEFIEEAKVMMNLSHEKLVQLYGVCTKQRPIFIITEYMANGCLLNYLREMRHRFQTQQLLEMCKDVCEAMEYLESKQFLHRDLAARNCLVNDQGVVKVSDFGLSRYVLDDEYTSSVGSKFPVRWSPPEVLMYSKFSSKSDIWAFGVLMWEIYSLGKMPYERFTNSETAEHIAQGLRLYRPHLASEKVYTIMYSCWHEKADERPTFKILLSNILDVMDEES
Chain of AMPK (r) (Q09137 whole entry): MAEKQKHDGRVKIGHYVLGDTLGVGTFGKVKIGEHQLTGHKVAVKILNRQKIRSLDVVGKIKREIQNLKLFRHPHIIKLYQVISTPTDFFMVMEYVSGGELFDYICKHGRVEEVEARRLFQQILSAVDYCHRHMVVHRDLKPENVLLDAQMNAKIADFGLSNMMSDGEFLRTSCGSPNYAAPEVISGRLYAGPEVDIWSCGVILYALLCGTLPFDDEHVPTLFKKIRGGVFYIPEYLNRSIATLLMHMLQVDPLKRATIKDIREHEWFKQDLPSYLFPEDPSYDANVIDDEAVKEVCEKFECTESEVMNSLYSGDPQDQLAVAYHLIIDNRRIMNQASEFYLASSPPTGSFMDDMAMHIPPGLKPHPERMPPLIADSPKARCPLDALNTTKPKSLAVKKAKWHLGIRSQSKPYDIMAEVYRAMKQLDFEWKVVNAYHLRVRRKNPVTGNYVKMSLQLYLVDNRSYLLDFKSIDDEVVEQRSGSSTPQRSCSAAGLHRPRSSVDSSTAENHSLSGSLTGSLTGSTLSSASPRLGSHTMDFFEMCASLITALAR
Chain of PKB β (h) (P31751 whole entry): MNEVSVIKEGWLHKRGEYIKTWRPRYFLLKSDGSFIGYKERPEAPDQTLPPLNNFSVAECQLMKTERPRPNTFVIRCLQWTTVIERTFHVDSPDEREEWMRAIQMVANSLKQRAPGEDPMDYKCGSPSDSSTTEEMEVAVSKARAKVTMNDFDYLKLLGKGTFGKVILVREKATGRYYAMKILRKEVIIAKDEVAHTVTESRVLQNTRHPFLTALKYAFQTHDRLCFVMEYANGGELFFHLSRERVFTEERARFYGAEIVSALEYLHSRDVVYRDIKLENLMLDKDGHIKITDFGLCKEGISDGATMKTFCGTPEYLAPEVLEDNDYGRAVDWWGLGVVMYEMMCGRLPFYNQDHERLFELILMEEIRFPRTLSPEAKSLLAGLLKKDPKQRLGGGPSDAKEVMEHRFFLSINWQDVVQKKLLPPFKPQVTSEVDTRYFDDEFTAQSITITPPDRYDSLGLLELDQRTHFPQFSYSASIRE
Chain of ROCK-1 (h) (Q13464 17-535 limits assumed): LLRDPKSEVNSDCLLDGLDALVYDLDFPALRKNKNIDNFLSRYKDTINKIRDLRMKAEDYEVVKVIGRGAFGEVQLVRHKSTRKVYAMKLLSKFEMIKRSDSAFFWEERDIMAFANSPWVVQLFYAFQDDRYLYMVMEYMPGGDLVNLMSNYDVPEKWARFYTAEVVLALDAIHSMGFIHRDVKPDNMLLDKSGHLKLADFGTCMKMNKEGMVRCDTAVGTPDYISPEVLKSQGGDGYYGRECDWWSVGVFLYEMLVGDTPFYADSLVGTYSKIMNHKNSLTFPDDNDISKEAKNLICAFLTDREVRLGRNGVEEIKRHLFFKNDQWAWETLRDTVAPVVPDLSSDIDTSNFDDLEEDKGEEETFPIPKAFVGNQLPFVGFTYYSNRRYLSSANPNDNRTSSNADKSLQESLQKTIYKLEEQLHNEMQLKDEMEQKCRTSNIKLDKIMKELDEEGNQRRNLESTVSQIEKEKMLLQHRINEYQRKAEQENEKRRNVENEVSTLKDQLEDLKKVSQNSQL
Chain of Pim-1 (h) (P11309 whole entry): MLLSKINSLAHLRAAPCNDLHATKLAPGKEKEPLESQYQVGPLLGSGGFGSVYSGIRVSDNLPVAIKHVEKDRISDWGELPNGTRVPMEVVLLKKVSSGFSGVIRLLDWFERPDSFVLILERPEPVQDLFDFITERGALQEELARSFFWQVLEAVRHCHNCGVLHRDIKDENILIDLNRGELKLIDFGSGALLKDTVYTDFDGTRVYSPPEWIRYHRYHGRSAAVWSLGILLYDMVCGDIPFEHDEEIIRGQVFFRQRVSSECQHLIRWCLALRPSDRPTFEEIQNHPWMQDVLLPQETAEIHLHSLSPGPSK
Chain of FGFR1 (h) (P11362 456-765 limits assumed): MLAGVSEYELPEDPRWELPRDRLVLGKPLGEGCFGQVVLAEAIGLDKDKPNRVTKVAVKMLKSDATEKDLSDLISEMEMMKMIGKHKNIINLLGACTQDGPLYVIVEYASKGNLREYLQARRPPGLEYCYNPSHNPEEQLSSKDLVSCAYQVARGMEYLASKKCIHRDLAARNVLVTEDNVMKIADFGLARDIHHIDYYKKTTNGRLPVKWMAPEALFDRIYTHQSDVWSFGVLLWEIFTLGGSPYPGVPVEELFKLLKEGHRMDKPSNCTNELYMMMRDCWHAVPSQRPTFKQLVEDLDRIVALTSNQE
Chain of CDKI/cyclinB (h) (P06493 whole entry): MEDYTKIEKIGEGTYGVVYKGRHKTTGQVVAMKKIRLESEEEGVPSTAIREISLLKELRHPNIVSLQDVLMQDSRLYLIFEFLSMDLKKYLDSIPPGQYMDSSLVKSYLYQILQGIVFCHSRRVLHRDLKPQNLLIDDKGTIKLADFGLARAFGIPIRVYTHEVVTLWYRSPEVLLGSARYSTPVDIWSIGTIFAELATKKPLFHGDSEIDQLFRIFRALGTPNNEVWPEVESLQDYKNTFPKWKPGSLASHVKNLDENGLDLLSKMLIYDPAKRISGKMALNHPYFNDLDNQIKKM
Chain of Lck (h) (P06239 whole entry): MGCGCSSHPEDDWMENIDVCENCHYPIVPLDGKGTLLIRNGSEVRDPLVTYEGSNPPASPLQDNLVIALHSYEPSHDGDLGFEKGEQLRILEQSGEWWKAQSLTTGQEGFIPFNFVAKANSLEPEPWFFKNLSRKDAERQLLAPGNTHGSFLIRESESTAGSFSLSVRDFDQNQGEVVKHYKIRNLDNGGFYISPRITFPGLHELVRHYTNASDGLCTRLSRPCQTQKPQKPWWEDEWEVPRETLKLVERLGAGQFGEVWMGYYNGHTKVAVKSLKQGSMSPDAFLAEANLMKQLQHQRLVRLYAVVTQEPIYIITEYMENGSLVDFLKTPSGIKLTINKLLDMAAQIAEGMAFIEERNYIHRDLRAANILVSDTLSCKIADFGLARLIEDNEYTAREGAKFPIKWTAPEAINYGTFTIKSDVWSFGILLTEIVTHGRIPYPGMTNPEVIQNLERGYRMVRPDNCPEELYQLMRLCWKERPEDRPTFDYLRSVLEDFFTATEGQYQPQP
Chain of L1MK1 (h) (P53667 285-638 limits assumed): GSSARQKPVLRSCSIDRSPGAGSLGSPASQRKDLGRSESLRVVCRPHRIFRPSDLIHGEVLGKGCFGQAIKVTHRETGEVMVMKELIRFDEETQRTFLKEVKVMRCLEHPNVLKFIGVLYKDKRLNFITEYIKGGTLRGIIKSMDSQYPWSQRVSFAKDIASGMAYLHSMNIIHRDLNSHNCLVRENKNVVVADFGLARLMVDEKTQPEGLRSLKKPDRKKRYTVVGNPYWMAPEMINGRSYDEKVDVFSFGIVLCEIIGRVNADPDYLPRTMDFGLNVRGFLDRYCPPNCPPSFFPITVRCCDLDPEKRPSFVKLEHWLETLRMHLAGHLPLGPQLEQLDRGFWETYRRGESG

In the case of WLRRIKAWLRRIKALNRQLGVAA, the “Profile-1 @ = 30 µm (kinase profiler assay)” value (“Profile-1 @ = 30 µm” for short) came out at 36 in assay [1]; 89 in [2]; 0 in assay [3]; 18 in assay [4]; 27 in assay [5]; 117 in assay [6]. Besides, the “Profile-1 @ = 30 µm” value in assay [7] is 130; in assay [8] it was 5; in assay [9] it was 38; in assay [10], 17; in [11] it was 93; in assay [12] it was 80. Moreover, the “Profile-1 @ = 30 µm” value in [13] was found to be 5; in assay [14], 38.
